# According to US20240076412A1 (NATIONAL INSTITUTE OF BIOLOGICAL SCIENCES BEIJING, published 2024):
# Positions count from the first letter of the chain named. Like-named read-outs stand apart in the source and are kept apart here.
# B1: B6H12 (antibody)
# chain: EVQLVESGGDLVKPGGSLKLSCAASGFTFSGYGMSWVRQTPDKRLEWVATITSGGTYTYYPDSVKGRFTISRDNAKNTLYLQIDSLKSEDTAIYFCARSLAGNAMDYWGQGTSVTVSSGGGGSGGGGSGGGGSDIVMTQSPATLSVTPGDRVSLSCRASQTISDYLHWYQQKSHESPRLLIKFASQSISGIPSRFSGSGSGSDFTLSINSVEPEDVGVYYCQNGHGFPRTFGGGTKLEIK
# B2: AB6.12 (antibody, V domains shown)
# VH: QMQLVQSGAEVKKTGSSVKVSCKASGFNIKDYYLHWVRQAPGQALEWMGWIDPDQGDTEYAQKFQDRVTITRDRSMSTAYMELSSLRSEDTAMYYCNAAYGSSSYPMDYWGQGTTVTVSS
# VL: NIQMTQSPSAMSASVGDRVTITCKASQDIHRYLSWFQQKPGKVPKHLIYRANRLVSGVPSRFSGSGSGTEFTLTISSLQPEDFATYYCLQYDEFPYTFGGGTKVEIKR
# B3: SIRPα-d1-mFc fusion protein (Fc fusion, human, UniProt P78324 31-148, looked up)
# chain: EEELQVIQPDKSVLVAAGETATLRCTATSLIPVGPIQWFRGAGPGRELIYNQKEGHFPRVTTVSDLTKRNNMDFSIRIGNITPADAGTYYCVKFRKGSPDDVEFKSGAGTELSVRAKP
# modifications: biotinylated with Sulfo-NHS-SS-Biotin where used as the labelled ligand
# notes: range 1-148; also called bio-SIRPα-d1-mFc; biotinylated SIRPα-d1-mFc; not shown: mouse IgG2a Fc fragment
# B4: BC18 scFv-hFc (Fc fusion, part only; not given: scFv linker, domain order, IgG1 Fc, not shown: another chain or arm of the molecule; a dimerising Fc or GST; small tags and cut ends)
# VH: QVQLQQSGPGLVKPSETLSLTCTVSGDSINYHYWSWIRQPPGKGLEWIGYIYYSGSTTYNPSLKSRVTMSVDPSKNHFSLKLTSVTAADTALYFCARQRGAYDYWGQGTQVTVSS
# VL: DIQLTQSPSSVSASVGDRVTIACRASQDIGSRLVWYQQRPGKAPKLLIYAASSLQSGVPSRFSGSGSGTDFTLTISSLQPEDFATYYCQQSYSTPYSFGQGTKLEIK
# B5: BC7 full-length human IgG1 (antibody, V domains shown)
# VH: B4 VH with Q110L
# VL: DIVMTQSPSSVSASVGDRVTITCRASQGIGSRLAWYQQKPGKAPQLLIYAASSLQSGVPSRFSGSGSGTEFTLTISSLQPDDFATYYCQQYNSFSPITFGQGTRLEIK
# B6: BC18 full-length human IgG1 (antibody, V domains shown)
# VH: B4 VH
# VL: B4 VL
# notes: also called anti-CD47 mAb; parental anti-CD47 mAb
# B7: BC7 scFv-hFc (Fc fusion, part only; not given: scFv linker, domain order, IgG1 Fc, not shown: another chain or arm of the molecule; a dimerising Fc or GST; small tags and cut ends)
# VH: B4 VH with Q110L
# VL: B5 VL
# B8: BC7 phage-scFv (scFv, part only; not given: scFv linker, domain order, phage fusion, V domains shown, not shown: another chain or arm of the molecule; large carriers; small tags and cut ends)
# VH: B4 VH with Q110L
# VL: B5 VL
# B9: BC18 phage-scFv (scFv, part only; not given: scFv linker, domain order, phage fusion, V domains shown, not shown: another chain or arm of the molecule; large carriers; small tags and cut ends)
# VH: B4 VH
# VL: B4 VL
# B10: BC7m04 (antibody, IgG1, V domains shown)
# VH: B4 VH with Q110L
# VL: B5 VL with G28D, Q45K, E70D, D81E
# B11: BC7m03 (antibody, IgG1, V domains shown)
# VH: B4 VH with Q110L
# VL: B5 VL with G28D
# B12: BC18m03 (antibody, IgG1, V domains shown)
# VH: B4 VH with Q6E, Q110L
# VL: B4 VL
# Experiments:
# [1] = target: T1, extracellular domain of human CD47 (CD47-ECD), residues 1-118, with His6 tag and Avi tag (human, UniProt Q08722 19-136, biotin modification at the C-terminus (Avi tag, BirA) in the form called CD47-Bio); assay: CD47 binding ELISA, bio-CD47 captured on neutravidin, full-length IgG1
# T1 construct: also called CD47-ECD-His6; CD47-Bio; not shown: His6 tag and Avi tag from the vector
# [2] = target: T1, extracellular domain of human CD47 …; assay: SPR (Biacore T200), IgG1 captured on CM5 chip, CD47 as analyte; the column head prints KD (nM), but the cell equals kd/ka in M [Con't]
# Experimental: (§1) 1 μg/mL of anti-CD47 full length IgG1 antibodies were captured onto a CM5 chip for 30 s at 10 μl/min. CD47 in 2-fold serial dilutions (starting at 100 nmol, seven concentrations total) were injected over the antibody-bound surface for 120 s at 30 μl/min followed by a 240 s dissociation phase. After each cycle, the surface was regenerated with magnesium chloride.
# [3] = target: T1, extracellular domain of human CD47 …; assay: SPR (Biacore T200), IgG1 captured on CM5 chip, CD47 as analyte; the column head also prints x 10^-3, not applied because kd/ka of the cells gives the KD cell in M [Con't]
# Experimental: as §1
# [4] = target: T1, extracellular domain of human CD47 …; assay: CD47 binding ELISA, bio-CD47 captured on neutravidin, full-length IgG1; remark: listed apart in the source
# Experimental: CD47 binding ELISA: 2 μg/mL of neutravidin (Sigma) in phosphate buffered saline (PBS) was coated in U-bottom 96-well plate (Nunc, MaxiSorp™), 100 μL per well, at 4° C. overnight or 37° C. for 1 hour. 2 μg/mL of bio-CD47 in PBS containing 2% nonfat milk were then captured onto the plates at 100 μL per well by incubation at 30° C. for 1 hour. […] In between each incubation step, the ELISA plate was washed for 6 times with PBST solution (0.05% Tween20 containing PBS) at 200 μL per well. Followed by HRP-conjugated antibody incubation, the ELISA signal was developed by incubating with TMB substrate (Sigma) for 5-10 mins at 30° C. and then stop the reaction with 2M H₂SO₄ at 50 μL per well. The absorbance at 450 nm was read by a microplate reader (Bio-Rad). For scFv-Fc or IgG1 based ELISA, the method was basically the same as described above for phage-scFvs except the bound antibodies were detected by HRP-conjugated mouse anti-human IgG Fc antibody (Sigma).
# In FIG. 3, A. Antibodies in the form of full-length IgG1 were 3-fold serial diluted (starting at 10 nM, 12 concentrations total). B. Antibodies in the form of full-length IgG1 were 3-fold serial diluted (starting at 40 nM, 12 concentrations total).
# [5] = target: T1, extracellular domain of human CD47 …; assay: SPR (Biacore T200), IgG1 captured on CM5 chip, CD47 as analyte; the column head also prints x 10^6, not applied because kd/ka of the cells gives the KD cell in M [Con't]
# Experimental: as §1
# [6] = target: T1, extracellular domain of human CD47 …; assay: SIRPα competition ELISA, CD47-ECD-His6 coated, competitor 0.5 nM biotinylated SIRPα-d1-mFc
# Experimental: (§2) The wash, development and read steps are the same as hCD47 binding ELISA. The OD450 values were transformed to Inhibition % in data analysis.
# (§3) B. Antibodies in the form of full-length IgG1 were 3-fold serial diluted (starting at 40 nM, 12 concentrations total).
# [7] = target: T1, extracellular domain of human CD47 …; assay: self-competition of unlabelled SIRPα against labelled SIRPα for CD47 (% inhibition); the sheet prints only SIRPα, taken as the unlabelled SIRPα-d1-mFc of the competition ELISA of Example 1
# [8] = target: extracellular domain of human CD47 (CD47-ECD), residues 1-118, with His6 tag and Avi tag (human) (UniProt Q08722); assay: SPR (Biacore), scFv-hFc captured on anti-human IgG Fc CM5 chip, CD47 as analyte, 1:1 model; column head x 10^6 applied
# [9] = target: extracellular domain of human CD47 (CD47-ECD), residues 1-118, with His6 tag and Avi tag (human) (UniProt Q08722); assay: SPR (Biacore), scFv-hFc captured on anti-human IgG Fc CM5 chip, CD47 as analyte, 1:1 Langmuir model
# [10] = target: extracellular domain of human CD47 (CD47-ECD), residues 1-118, with His6 tag and Avi tag (human) (UniProt Q08722); assay: SPR (Biacore), scFv-hFc captured on anti-human IgG Fc CM5 chip, CD47 as analyte, 1:1 model; column head x 10^-3 applied
# [11] = target: extracellular domain of human CD47 (CD47-ECD), residues 1-118, with His6 tag and Avi tag (human) (UniProt Q08722); assay: competition of the CD47/SIRPα interaction (% inhibition); the format is not stated for this panel, taken as the SIRPα competition ELISA of Example 1 with labelled SIRPα as competitor
# [12] = target: T1, extracellular domain of human CD47 …; assay: SIRPα competition ELISA, CD47-ECD-His6 coated, competitor 0.8 nM biotinylated SIRPα-d1-mFc
# Experimental: as §2, §3
# [13] = target: T1, extracellular domain of human CD47 …; assay: SPR (Biacore T200), IgG1 captured on CM5 chip, CD47 as analyte [Con't]
# Experimental: SPR was performed on a Biacore T200. 1 μg/mL of anti-CD47 full length IgG1 antibodies were captured onto a CM5 chip for 30 s at 10 μl/min. CD47 in 2-fold serial dilutions (starting at 100 nmol, seven concentrations total) were injected over the antibody-bound surface for 120 s at 30 μl/min followed by a 240 s dissociation phase. After each cycle, the surface was regenerated with magnesium chloride.
# [14] = target: hCD47 protein (SPR analyte of Example 2) (human, UniProt Q08722 19-139, limits assumed); assay: SPR (Biacore T200), IgG1 captured on protein A/G CM5 chip, human CD47 as analyte
# Experimental: All SPR analyses were performed on a Biacore T200 instrument (Biacore, GE Healthcare). […] The association rates (Kₒₙ), dissociation rates (Koff), and affinity constants (KD) were calculated using BiacoreT200 evaluation software.
# hGPC3-ΔHS = target: T2, hGPC3-ΔHS (human, UniProt P51654 25-559, limits assumed); assay: SPR, antibody captured by anti-human Fc antibodies on CM5 chip, hGPC3 injected first, then hCD47
# T2 construct: also called hGPC3-ΔHS protein
# [15] = target: extracellular domain of human CD47 (CD47-ECD), residues 1-118, with His6 tag and Avi tag (human) (UniProt Q08722); assay: phage-scFv ELISA on captured CD47-Bio
binder,measurement,setting,value
B1,EC50 (read off the curve),[1],~0.02 nM
B2,Kd,[2],1.76 nM
same,koff,[3],0.00186 s⁻¹
same,EC50 (read off the curve),[4],~0.2 nM
same,kon,[5],1.06e+06 M⁻¹ s⁻¹
same,IC50 (read off the curve),[6],~6 nM
B3,IC50 (read off the curve),[7],~4 nM
B4,kon,[8],2.41e+06 M⁻¹ s⁻¹
same,Kd,[9],1.43 nM
same,koff,[10],0.00328 s⁻¹
same,IC50 (read off the curve),[11],10 nM
B5,EC50 (read off the curve),[1],~0.01 nM
same,IC50 (read off the curve),[12],~4 nM
same,Kd,[13],4.81 nM
same,koff,[13],0.00394 s⁻¹
same,kon,[13],816000 M⁻¹ s⁻¹
B6,Kd,[14],1.11 nM
same,koff,[14],0.000753 s⁻¹
same,kon,[14],679000 M⁻¹ s⁻¹
same,EC50 (read off the curve),[1],~0.01 nM
same,Kd,[2],2.22 nM
same,binding result,hGPC3-ΔHS,no binding
same,IC50 (read off the curve),[12],~3 nM
same,Kd,[13],1.62 nM
same,koff,[13],0.00117 s⁻¹
same,kon,[13],721000 M⁻¹ s⁻¹
same,koff,[3],0.00123 s⁻¹
same,EC50 (read off the curve),[4],~0.01 nM
same,kon,[5],557000 M⁻¹ s⁻¹
same,IC50 (read off the curve),[6],~3 nM
B7,kon,[8],1.84e+06 M⁻¹ s⁻¹
same,Kd,[9],3.27 nM
same,koff,[10],0.006 s⁻¹
B8,optical density at 450 nm,[15],> 0.2 OD450
B9,optical density at 450 nm,[15],> 0.2 OD450
B10,Kd,[13],1.55 nM
same,koff,[13],0.00118 s⁻¹
same,kon,[13],763000 M⁻¹ s⁻¹
B11,Kd,[13],1.46 nM
same,koff,[13],0.00118 s⁻¹
same,kon,[13],806000 M⁻¹ s⁻¹
B12,Kd,[13],1.6 nM
same,koff,[13],0.00122 s⁻¹
same,kon,[13],762000 M⁻¹ s⁻¹
